Screen value data for 64 variants are collected here from paper PMC12102759 (2025).

B1: NOTCH4 peptide 1606-1621 (Neurogenic locus notch homolog protein 4), 16-mer library wild type / NSP9 (ORF1ab Nsp9, residues 4141-4253) (parent complex)
chain 1: QGAWLGAPEPWEPLLD
chain 2: NNELSPVALRQMSCAAGTTQTACTDDNALAYYNTTKGGRFVLALLSDLQDLKWARFPKSDGTGTIYTELEPPCRFVTDTPKGPKVKYLYFIKGLNNLNRGMVLGSLAATVRLQ
B2: AZIN2 peptide 1-16 (Antizyme inhibitor 2), 16-mer library wild type / NSP3 ADRP (ORF1ab Nsp3b ADRP, residues 1023-1192) (parent complex)
chain 1: MAGYLSESDFVMVEEG
chain 2: not shown

In the first experiment the parent is B1. Put plainly: bait immobilised on MaxiSorp plates (10 µg), library pre-cleared on GST, 2 h binding at 4 °C, five washes; one round per day, days 1-4; value from days 2 and 3.
For the variant chain 1 QGAWLGAPEPWEPLID [chain 1 L15I], the screen value was 0.0135 average fractional NGS count over selection days 2 and 3 (reads of this peptide / all reads for the bait, averaged over ….

In the next experiment the parent is B2. Described as above.
For chain 1 V13M, the screen value was 0.000618 average fractional NGS count over selection days 2 and 3 (reads of this peptide / all reads for the bait, averaged over ….
Still for that read-out and setting: then chain 1 V13I, with 0.00423 average fractional NGS count over selection days 2 and 3 (reads of this peptide / all reads for the bait, averaged over …; and chain 1 V13T, with 8.71e-05 average fractional NGS count over selection days 2 and 3 (reads of this peptide / all reads for the bait, averaged over ….
Still for that read-out and setting: the result for chain 1 V13Q reads 0.000748 average fractional NGS count over selection days 2 and 3 (reads of this peptide / all reads for the bait, averaged over ….
Still for that read-out and setting: then chain 1 V13H, with 0.00368 average fractional NGS count over selection days 2 and 3 (reads of this peptide / all reads for the bait, averaged over …; and chain 1 S8T, with 0.00377 average fractional NGS count over selection days 2 and 3 (reads of this peptide / all reads for the bait, averaged over ….
Consider chain 1 S8H, for which the screen value is 6.7e-05 average fractional NGS count over selection days 2 and 3 (reads of this peptide / all reads for the bait, averaged over ….
Turning to chain 1 S8L, the screen value is 0.000166 average fractional NGS count over selection days 2 and 3 (reads of this peptide / all reads for the bait, averaged over ….
On to chain 1 S8M, for which the screen value is 0.000908 average fractional NGS count over selection days 2 and 3 (reads of this peptide / all reads for the bait, averaged over ….
On the same count and under the same terms, the result for chain 1 S8Y reads 0.035 average fractional NGS count over selection days 2 and 3 (reads of this peptide / all reads for the bait, averaged over …; that for chain 1 D9E, 0.000316 average fractional NGS count over selection days 2 and 3 (reads of this peptide / all reads for the bait, averaged over ….
For chain 1 D9K, the screen value is 0.00156 average fractional NGS count over selection days 2 and 3 (reads of this peptide / all reads for the bait, averaged over ….
Same read-out and setting: then chain 1 D9Q, with 0.000191 average fractional NGS count over selection days 2 and 3 (reads of this peptide / all reads for the bait, averaged over …; and chain 1 D9G, with 0.000412 average fractional NGS count over selection days 2 and 3 (reads of this peptide / all reads for the bait, averaged over …; and chain 1 D9N, with 0.0514 average fractional NGS count over selection days 2 and 3 (reads of this peptide / all reads for the bait, averaged over ….
With chain 1 Y4W, the screen value was 0.00197 average fractional NGS count over selection days 2 and 3 (reads of this peptide / all reads for the bait, averaged over ….
On the same count and under the same terms, the result for chain 1 V11M reads 0.000364 average fractional NGS count over selection days 2 and 3 (reads of this peptide / all reads for the bait, averaged over …; that for chain 1 V11L, 0.0066 average fractional NGS count over selection days 2 and 3 (reads of this peptide / all reads for the bait, averaged over ….
Turning to chain 1 V11H, the screen value is 7.39e-05 average fractional NGS count over selection days 2 and 3 (reads of this peptide / all reads for the bait, averaged over ….
Same read-out and setting: then chain 1 V11I, with 0.195 average fractional NGS count over selection days 2 and 3 (reads of this peptide / all reads for the bait, averaged over ….
Same read-out and setting: then chain 1 V11E, with 0.000156 average fractional NGS count over selection days 2 and 3 (reads of this peptide / all reads for the bait, averaged over …; and chain 1 V11T, with 0.000107 average fractional NGS count over selection days 2 and 3 (reads of this peptide / all reads for the bait, averaged over …; and chain 1 E14R, with 0.000473 average fractional NGS count over selection days 2 and 3 (reads of this peptide / all reads for the bait, averaged over ….
As for chain 1 E14N, the screen value was 0.000346 average fractional NGS count over selection days 2 and 3 (reads of this peptide / all reads for the bait, averaged over ….
As for chain 1 E14P, the screen value is 0.0011 average fractional NGS count over selection days 2 and 3 (reads of this peptide / all reads for the bait, averaged over ….
On the same count and under the same terms, then chain 1 E14M, with 0.000122 average fractional NGS count over selection days 2 and 3 (reads of this peptide / all reads for the bait, averaged over …; and chain 1 E14S, with 0.000258 average fractional NGS count over selection days 2 and 3 (reads of this peptide / all reads for the bait, averaged over …; and chain 1 E14Q, with 0.00039 average fractional NGS count over selection days 2 and 3 (reads of this peptide / all reads for the bait, averaged over ….
Still for that read-out and setting: the result for chain 1 E7K reads 0.00106 average fractional NGS count over selection days 2 and 3 (reads of this peptide / all reads for the bait, averaged over ….
Take chain 1 G3R: the screen value was 7.43e-05 average fractional NGS count over selection days 2 and 3 (reads of this peptide / all reads for the bait, averaged over ….
For the variant chain 1 G3H, the screen value is 8.37e-05 average fractional NGS count over selection days 2 and 3 (reads of this peptide / all reads for the bait, averaged over ….
Still for that read-out and setting: the result for chain 1 G3M reads 0.000375 average fractional NGS count over selection days 2 and 3 (reads of this peptide / all reads for the bait, averaged over …; that for chain 1 G3Q, 0.000537 average fractional NGS count over selection days 2 and 3 (reads of this peptide / all reads for the bait, averaged over …; that for chain 1 G3K, 0.00086 average fractional NGS count over selection days 2 and 3 (reads of this peptide / all reads for the bait, averaged over ….
On the same count and under the same terms, the result for chain 1 G3A reads 0.000627 average fractional NGS count over selection days 2 and 3 (reads of this peptide / all reads for the bait, averaged over …; that for chain 1 G3D, 0.00677 average fractional NGS count over selection days 2 and 3 (reads of this peptide / all reads for the bait, averaged over ….
On the same count and under the same terms, then chain 1 G16T, with 0.000528 average fractional NGS count over selection days 2 and 3 (reads of this peptide / all reads for the bait, averaged over …; and chain 1 G16P, with 9.14e-05 average fractional NGS count over selection days 2 and 3 (reads of this peptide / all reads for the bait, averaged over …; and chain 1 G16V, with 0.000213 average fractional NGS count over selection days 2 and 3 (reads of this peptide / all reads for the bait, averaged over ….
For chain 1 G16S, the screen value is 0.000137 average fractional NGS count over selection days 2 and 3 (reads of this peptide / all reads for the bait, averaged over ….
Regarding chain 1 G16H, the screen value was 0.000328 average fractional NGS count over selection days 2 and 3 (reads of this peptide / all reads for the bait, averaged over ….
For chain 1 G16F, the screen value is 0.000171 average fractional NGS count over selection days 2 and 3 (reads of this peptide / all reads for the bait, averaged over ….
Still for that read-out and setting: then chain 1 G16N, with 0.00027 average fractional NGS count over selection days 2 and 3 (reads of this peptide / all reads for the bait, averaged over …; and chain 1 G16E, with 0.000344 average fractional NGS count over selection days 2 and 3 (reads of this peptide / all reads for the bait, averaged over ….
For the variant chain 1 G16K, the screen value is 0.000188 average fractional NGS count over selection days 2 and 3 (reads of this peptide / all reads for the bait, averaged over ….
As to chain 1 G16A, the screen value was 0.00182 average fractional NGS count over selection days 2 and 3 (reads of this peptide / all reads for the bait, averaged over ….
Consider chain 1 G16D, for which the screen value was 0.00105 average fractional NGS count over selection days 2 and 3 (reads of this peptide / all reads for the bait, averaged over ….
Same read-out and setting: then chain 1 G16Q, with 0.000216 average fractional NGS count over selection days 2 and 3 (reads of this peptide / all reads for the bait, averaged over …; and chain 1 G16L, with 0.000127 average fractional NGS count over selection days 2 and 3 (reads of this peptide / all reads for the bait, averaged over ….
As for chain 1 M12A, the screen value is 0.00221 average fractional NGS count over selection days 2 and 3 (reads of this peptide / all reads for the bait, averaged over ….
The same measure, in the same setting: then chain 1 M12E, with 0.000138 average fractional NGS count over selection days 2 and 3 (reads of this peptide / all reads for the bait, averaged over …; and chain 1 M12H, with 0.000156 average fractional NGS count over selection days 2 and 3 (reads of this peptide / all reads for the bait, averaged over ….
Regarding chain 1 M12Y, the screen value is 0.000582 average fractional NGS count over selection days 2 and 3 (reads of this peptide / all reads for the bait, averaged over ….
On the same count and under the same terms, the result for chain 1 M12N reads 0.00321 average fractional NGS count over selection days 2 and 3 (reads of this peptide / all reads for the bait, averaged over ….
Regarding chain 1 M12R, the screen value was 0.000896 average fractional NGS count over selection days 2 and 3 (reads of this peptide / all reads for the bait, averaged over ….
Regarding chain 1 M12L, the screen value was 0.0611 average fractional NGS count over selection days 2 and 3 (reads of this peptide / all reads for the bait, averaged over ….
On the same count and under the same terms, the result for chain 1 M12S reads 0.000927 average fractional NGS count over selection days 2 and 3 (reads of this peptide / all reads for the bait, averaged over …; that for chain 1 E15P, 7.42e-05 average fractional NGS count over selection days 2 and 3 (reads of this peptide / all reads for the bait, averaged over ….
Regarding chain 1 E15H, the screen value was 0.00102 average fractional NGS count over selection days 2 and 3 (reads of this peptide / all reads for the bait, averaged over ….
Regarding chain 1 E15T, the screen value was 0.000718 average fractional NGS count over selection days 2 and 3 (reads of this peptide / all reads for the bait, averaged over ….
Take chain 1 E15D: the screen value is 9.82e-05 average fractional NGS count over selection days 2 and 3 (reads of this peptide / all reads for the bait, averaged over ….
The same measure, in the same setting: the result for chain 1 E15S reads 0.00159 average fractional NGS count over selection days 2 and 3 (reads of this peptide / all reads for the bait, averaged over …; that for chain 1 E15N, 0.000739 average fractional NGS count over selection days 2 and 3 (reads of this peptide / all reads for the bait, averaged over ….
